B1: ABP1 I25I (protein, UniProt P15891 2-592, looked up)
Actin-binding protein: ALEPIDYTTHSREIDAEYLKIVRGSDPDTTWLIISPNAKKEYEPESTGSSFHDFLQLFDETKVQYGLARVSPPGSDVEKIIIIGWCPDSAPLKTRASFAANFAAVANNLFKGYHVQVTARDEDDLDENELLMKISNAAGARYSIQTSSKQQGKASTPPVKKSFTPSKSPAPVSKKEPVKTPSPAPAAKISSRVNDNNDDDDWNEPELKERDFDQAPLKPNQSSYKPIGKIDLQKVIAEEKAKEDPRLVQKPTAAGSKIDPSSDIANLKNESKLKRDSEFNSFLGTTKPPSMTESSLKNDDDKVIKGFRNEKSPAQLWAERKAKQNSGNAETKAEAPKPEVPEDEPEGEPDVKDLKSKFEGLAASEKEEEEMENKFAPPPKKSEPTIISPKPFSKPQEPVKAEEAEQPKTDYKKIGNPLPGMHIEADNEEEPEENDDDWDDDEDEAAQPPLPSRNVASGAPVQKEEPEQEEIAPSLPSRNSIPAPKQEEAPEQAPEEEIEEEAEEAAPQLPSRSSAAPPPPPRRATPEKKPKENPWATAEYDYDAAEDNELTFVENDKIINIEFVDDDWWLGELEKDGSKGLFPSNYVSLGN
modifications: synonymous codon change I25
B2: ABP1 E29E (protein, UniProt P15891 2-592, looked up)
Actin-binding protein: ALEPIDYTTHSREIDAEYLKIVRGSDPDTTWLIISPNAKKEYEPESTGSSFHDFLQLFDETKVQYGLARVSPPGSDVEKIIIIGWCPDSAPLKTRASFAANFAAVANNLFKGYHVQVTARDEDDLDENELLMKISNAAGARYSIQTSSKQQGKASTPPVKKSFTPSKSPAPVSKKEPVKTPSPAPAAKISSRVNDNNDDDDWNEPELKERDFDQAPLKPNQSSYKPIGKIDLQKVIAEEKAKEDPRLVQKPTAAGSKIDPSSDIANLKNESKLKRDSEFNSFLGTTKPPSMTESSLKNDDDKVIKGFRNEKSPAQLWAERKAKQNSGNAETKAEAPKPEVPEDEPEGEPDVKDLKSKFEGLAASEKEEEEMENKFAPPPKKSEPTIISPKPFSKPQEPVKAEEAEQPKTDYKKIGNPLPGMHIEADNEEEPEENDDDWDDDEDEAAQPPLPSRNVASGAPVQKEEPEQEEIAPSLPSRNSIPAPKQEEAPEQAPEEEIEEEAEEAAPQLPSRSSAAPPPPPRRATPEKKPKENPWATAEYDYDAAEDNELTFVENDKIINIEFVDDDWWLGELEKDGSKGLFPSNYVSLGN
modifications: synonymous codon change E29E
B3: ABP1 N27N (protein, UniProt P15891 2-592, looked up)
Actin-binding protein: ALEPIDYTTHSREIDAEYLKIVRGSDPDTTWLIISPNAKKEYEPESTGSSFHDFLQLFDETKVQYGLARVSPPGSDVEKIIIIGWCPDSAPLKTRASFAANFAAVANNLFKGYHVQVTARDEDDLDENELLMKISNAAGARYSIQTSSKQQGKASTPPVKKSFTPSKSPAPVSKKEPVKTPSPAPAAKISSRVNDNNDDDDWNEPELKERDFDQAPLKPNQSSYKPIGKIDLQKVIAEEKAKEDPRLVQKPTAAGSKIDPSSDIANLKNESKLKRDSEFNSFLGTTKPPSMTESSLKNDDDKVIKGFRNEKSPAQLWAERKAKQNSGNAETKAEAPKPEVPEDEPEGEPDVKDLKSKFEGLAASEKEEEEMENKFAPPPKKSEPTIISPKPFSKPQEPVKAEEAEQPKTDYKKIGNPLPGMHIEADNEEEPEENDDDWDDDEDEAAQPPLPSRNVASGAPVQKEEPEQEEIAPSLPSRNSIPAPKQEEAPEQAPEEEIEEEAEEAAPQLPSRSSAAPPPPPRRATPEKKPKENPWATAEYDYDAAEDNELTFVENDKIINIEFVDDDWWLGELEKDGSKGLFPSNYVSLGN
modifications: synonymous change N27N in SH3 domain
B4: YHR064C (protein, UniProt P38788 1-538, looked up)
Ribosome-associated complex …: MSSPVIGITFGNTSSSIAYINPKNDVDVIANPDGERAIPSALSYVGEDEYHGGQALQQLIRNPKNTIINFRDFIGLPFDKCDVSKCANGAPAVEVDGKVGFVISRGEGKEEKLTVDEVVSRHLNRLKLAAEDYIGSAVKEAVLTVPTNFSEEQKTALKASAAKIGLQIVQFINEPSAALLAHAEQFPFEKDVNVVVADFGGIRSDAAVIAVRNGIFTILATAHDLSLGGDNLDTELVEYFASEFQKKYQANPRKNARSLAKLKANSSITKKTLSNATSATISIDSLADGFDYHASINRMRYELVANKVFAQFSSFVDSVIAKAELDPLDIDAVLLTGGVSFTPKLTTNLEYTLPESVEILGPQNKNASNNPNELAASGAALQARLISDYDADELAEALQPVIVNTPHLKKPIGLIGAKGEFHPVLLAETSFPVQKKLTLKQAKGDFLIGVYEGDHHIEEKTLEPIPKEENAEEDDESEWSDDEPEVVREKLYTLGTKLMELGIKNANGVEIIFNINKDGALRVTARDLKTGNAVKGEL
B5: YIL033C (protein, UniProt P07278 2-416, looked up)
cAMP-dependent protein kinase …: VSSLPKESQAELQLFQNEINAANPSDFLQFSANYFNKRLEQQRAFLKAREPEFKAKNIVLFPEPEESFSRPQSAQSQSRSRSSVMFKSPFVNEDPHSNVFKSGFNLDPHEQDTHQQAQEEQQHTREKTSTPPLPMHFNAQRRTSVSGETLQPNNFDDWTPDHYKEKSEQQLQRLEKSIRNNFLFNKLDSDSKRLVINCLEEKSVPKGATIIKQGDQGDYFYVVEKGTVDFYVNDNKVNSSGPGSSFGELALMYNSPRAATVVATSDCLLWALDRLTFRKILLGSSFKKRLMYDDLLKSMPVLKSLTTYDRAKLADALDTKIYQPGETIIREGDQGENFYLIEYGAVDVSKKGQGVINKLKDHDYFGEVALLNDLPRQATVTATKRTKVATLGKSGFQRLLGPAVDVLKLNDPTRH

Legend:
Type in all cases: cell-based, Saccharomyces cerevisiae
Lsb3 = assay: Deep mutational scanning of Abp1 SH3, Abp1-Lsb3 DHFR-PCA (DMS score); conditions: for LSB3_MTX2 (frequencies normalized to the reference condition): Abp1-Lsb3 DHFR-PCA, MTX2; for lsb3sc (DMS score): Lsb3, frequencies scaled to the synonymous mutation distribution (DMS score)
Summary of the method: (§1)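 Yeast carrying single-codon Abp1 SH3 variants at the endogenous locus, each paired with a Hua2 or Lsb3 DHFR-fragment partner; binding scored by growth over two successive 72 h PCA selections at 30 °C. Illumina counts before and after selection give the DMS score; independent duplicates.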

Hua2 and Lsb3 = assay: Deep mutational scanning of Abp1 SH3: combined class (quadrant) from Abp1-Hua2 and Abp1-Lsb3 DHFR-PCA; conditions: class by DMS scores with Hua2 and Lsb3 (Neutral, Dest. both, Dest. Hua2, Dest. Lsb3)
Hua2 = assay: Deep mutational scanning of Abp1 SH3, Abp1-Hua2 DHFR-PCA (DMS score); conditions: for HUA2_MTX2 (frequencies normalized to the reference condition): Abp1-Hua2 DHFR-PCA, MTX2; for hua2sc (DMS score): Hua2, frequencies scaled to the synonymous mutation distribution (DMS score)
Summary of the method: as §1

BBC1 = assay: DHFR-PCA on solid medium, bait BBC1 (Fig. 1B); conditions: bait BBC1, label = prey; 2-4 replicates
From the text: (§2) Supplement 41467_2021_21873_MOESM8_ESM.xlsx, sheet "Fig1B" | column: medsize; medrep; Ratio; Score

BEM1-1 = assay: DHFR-PCA on solid medium, bait BEM1-1 (Fig. 1B); conditions: bait BEM1-1, label = prey; for medrep (log2 median colony size normalized to plate background, PCA score): 2-8 replicates
From the text: as §2

ABP1 = assay: DHFR-PCA on solid medium, bait ABP1 (Fig. 1B); conditions: bait ABP1, label = prey; 2-4 replicates
From the text: as §2

BZZ1-1 = assay: DHFR-PCA on solid medium, bait BZZ1-1 (Fig. 1B); conditions: bait BZZ1-1, label = prey; 4 replicates
From the text: Supplement 41467_2021_21873_MOESM8_ESM.xlsx, sheet "Fig1B" | column: medsize; medrep; Score

[1] = test system: 575 putative partners (preys) of 22 WT SH3-containing proteins; assay: DHFR-PCA on solid medium, WT and SH3-deleted baits (Fig. 1B); parameters: key to Score: 0: SH3-independent; 1: SH3-dependent PPIs; 2: SH3-inhibited PPIs; conditions: for medrep (log2 median colony size normalized to plate background, PCA score): bait SLA1-3, DHFR-PCA, label = prey, Replicates 4 (2 for YCR009C, YDR388W, YIL033C); for Score: bait SLA1-3, label = prey
Summary of the method: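 Interactions scored by DHFR protein-fragment complementation on solid medium using robotic pinning; preys (DHFR F[3] fusions) arrayed in duplicate with control borders. Baits carried C-terminal DHFR F[1,2]-FLAG tags, tested as wild type and as SH3-deleted versions carrying a flexible Gly/Ser stuffer.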

BOI2 = assay: DHFR-PCA on solid medium, bait BOI2 (Fig. 1B); conditions: bait BOI2, label = prey; 3-8 replicates
From the text: as §2

BEM1-2 = assay: DHFR-PCA on solid medium, bait BEM1-2 (Fig. 1B); conditions: bait BEM1-2, label = prey; 2-8 replicates
From the text: as §2

BUD14 = assay: DHFR-PCA on solid medium, bait BUD14 (Fig. 1B); conditions: bait BUD14, label = prey; for medrep (log2 median colony size normalized to plate background, PCA score): 4 replicates
From the text: as §2

BOI1 = assay: DHFR-PCA on solid medium, bait BOI1 (Fig. 1B); conditions: bait BOI1, label = prey; 3-8 replicates
From the text: as §2

[2] = only significant differences showed, PPIs completely lost have a ratio of 0.1 and the gained PPIs 2.5

Molecule | LSB3_MTX2 (frequencies normalized to the reference condition) (Lsb3) | lsb3sc (DMS score) (Lsb3) | quadrant (Hua2 and Lsb3) | HUA2_MTX2 (frequencies normalized to the reference condition) (Hua2) | hua2sc (DMS score) (Hua2) | medrep (log2 median colony size normalized to plate background, PCA score) (BBC1) | medrep (log2 median colony size normalized to plate background, PCA score) (BEM1-1) | Ratio (SH3-deleted/WT medrep) (BEM1-1; [2]) | medrep (log2 median colony size normalized to plate background, PCA score) (ABP1) | medrep (log2 median colony size normalized to plate background, PCA score) (BZZ1-1) | medrep (log2 median colony size normalized to plate background, PCA score) [1] | Score [1] | medrep (log2 median colony size normalized to plate background, PCA score) (BOI2) | medrep (log2 median colony size normalized to plate background, PCA score) (BEM1-2) | medrep (log2 median colony size normalized to plate background, PCA score) (BUD14) | Ratio (SH3-deleted/WT medrep) (BUD14; [2]) | medrep (log2 median colony size normalized to plate background, PCA score) (BOI1)
B1 | 1.319 | -0.181 | Neutral | 1.723 | 0.1101 | – | – | – | – | – | – | – | – | – | – | – | –
B2 | 1.788 | 0.2879 | Neutral | 1.834 | 0.2208 | – | – | – | – | – | – | – | – | – | – | – | –
B3 | 1.694 | 0.1932 | Neutral | 1.61 | -0.002773 | – | – | – | – | – | – | – | – | – | – | – | –
B4 | – | – | – | – | – | 4.121 | 1.993 | 0.1 | 4.8359 | 2.391 | 4.584 | 0 | 2.6006 | 1.993 | 1.869 | 0.1 | –
B5 | – | – | – | – | – | 2.137 | 1.8558 | – | 3.25 | 2.099 | 2.8 | 0 | 1.723 | 1.8558 | 1.967 | – | 2.0471

— article PMC7954794, “Protein context shapes the specificity of SH3 domain-mediated interactions in vivo” (Nature Communications, 2021)
